Percent reduction of the interaction against WT-JPH2 data for one substance are collected here from paper PMC7790862.

This assay concerns the target HA-tagged human Junctophilin-2 with seven point mutations in the Joining region (Ad-mut^PG1JPH2) (human) (UniProt Q9BR39). In words: co-IP + proximity ligation.

Take “L-type Ca2+ channel pore-forming subunit α1C (natural protein)”: the percent reduction of the interaction against WT-JPH2 is 30 to 40%.
